Data: patent US7026443
Read-outs that look alike come from different tables or passages of the source.

Key:
[1] = target: HLA-A*1101 (human); test: competition with 125I-labeled standard probe peptide for purified HLA-A*1101, gel filtration
[2] = target: HLA-A*0201 (human); test: competition with 125I-labeled standard probe peptide for purified HLA-A*0201, gel filtration
[3] = target: HLA-A*0201 (human); test: competition against 125I-labelled standard peptide on purified HLA-A*0201, gel filtration
[4] = target: HLA-A*0301 (human); test: competition with 125I-labelled standard peptide for purified HLA, gel filtration
[5] = target: HLA-A*1101 (human); test: as above
[6] = target: HLA-A*3101 (human); test: as above
[7] = target: HLA-A*3301 (human); test: as above
[8] = target: HLA-A*6801 (human); test: as above
[9] = target: HLA-A*2402 (human); test: as above
[10] = target: HLA-B*0702 (human); test: competition with 125I-labeled standard peptide for purified HLA, gel filtration
[11] = target: HLA-B*3501 (human); test: as above
[12] = target: HLA-B*5101 (human); test: as above
[13] = target: HLA-B*5301 (human); test: as above
[14] = target: HLA-B*5401 (human); test: as above
[15] = target: HLA-A*0301 (human); test: as above
[16] = target: HLA-A*1101 (human); test: as above
[17] = target: HLA-A*0301 (human); test: competition with 125I-labeled standard probe peptide for purified HLA-A*0301, gel filtration
[18] = target: HLA-A*0201 (human); test: competition with 125I-labelled standard peptide for purified HLA, gel filtration
[19] = target: HLA-B*0702 (human)
[20] = target: HLA-B*3501 (human)
[21] = target: HLA-B*5301 (human)
[22] = target: HLA-A*1101 (human); test: competition with 125I-labeled standard peptide for purified HLA-A*1101, gel filtration

B1: HPV45 E1 265 … (SEQ ID NO: 43630) (peptide)
peptide: GVLILALLR
modifications: not checked
B1 was tested, and the relative binding ratio (IC50 of standard peptide / IC50 of test peptide) [1] was 0.14.

B2: HPV31 E7 peptide … (position 64, 9 amino acids) (peptide)
peptide: TLRLCVQST
modifications: not checked
Work on B2 yielded a relative binding ratio (IC50 of standard peptide / IC50 of test peptide) [2] of 0.0061.

B3: HPV16 E1 292 … (peptide)
peptide: KLLSKLLCV
modifications: not checked
In the case of B3, the relative binding ratio (IC50 of standard peptide / IC50 of test peptide) [3] is reported as 0.051.

B4: HPV16 E6 peptide … (peptide)
peptide: CMSCCRSSR
modifications: not checked
With B4 the binding affinity ratio (IC50 of standard peptide / IC50 of test peptide) [4] was 0.0033, the binding affinity ratio (IC50 of standard peptide / IC50 of test peptide) [5] was 0.0001 and the binding affinity ratio (IC50 of standard peptide / IC50 of test peptide) [6] was 0.082. The binding affinity ratio (IC50 of standard peptide / IC50 of test peptide) [7] was 0.12 and the binding affinity ratio (IC50 of standard peptide / IC50 of test peptide) [8] was 0.0011.

B5: HPV18 E6 position 44, 10-mer … (peptide)
peptide: VFEFAFKDLF
modifications: not checked
For B5, the binding affinity ratio (IC50 of standard peptide / IC50 of test peptide) [9] was 0.036.

B6: HPV16 E1 576 … (peptide)
peptide: WPYLHNRLV
modifications: not checked
For B6, the binding affinity ratio (IC50 of standard peptide / IC50 of test peptide) [10] was 0.052, the binding affinity ratio (IC50 of standard peptide / IC50 of test peptide) [11] was 0.0003 and the binding affinity ratio (IC50 of standard peptide / IC50 of test peptide) [12] was 0.11. The binding affinity ratio (IC50 of standard peptide / IC50 of test peptide) [13] was 0.0002 and the binding affinity ratio (IC50 of standard peptide / IC50 of test peptide) [14] was 0.18.

B7: HPV16 E1 peptide … (position 202, 9 amino acids) (peptide)
peptide: NAKAAMLAK
modifications: not checked
Work on B7 yielded a relative binding ratio (IC50 of standard peptide / IC50 of test peptide) [15] of 0.0005, a relative binding ratio (IC50 of standard peptide / IC50 of test peptide) [16] of 0.0031 and a binding affinity ratio (IC50 of the standard peptide / IC50 of the test peptide) [17] of 0.0005.

B8: HPV31 E1 peptide … (position 11, 10 amino acids) (peptide)
peptide: GTGCNGWFYV
modifications: not checked
B8 gave a relative binding ratio (IC50 of standard peptide / IC50 of test peptide) (ratio to standard peptide) [2] of 0.0006.

B9: HPV45 E1 327 … (SEQ ID NO: 43619) (peptide)
peptide: GDTPEWIQR
modifications: not checked
B9 gave a relative binding ratio (IC50 of standard peptide / IC50 of test peptide) [1] of 0.0002.

B10: HPV18 E1 569 peptide … (peptide)
peptide: ILLTTNIHPA
modifications: not checked
Binder B10 has a binding affinity ratio (IC50 of standard peptide / IC50 of test peptide) [18] of 0.08.

B11: HPV18 E1 266 peptide … (peptide)
peptide: ILYAHIQCL
modifications: not checked
B11 gave a binding affinity ratio (IC50 of standard peptide / IC50 of test peptide) ([18]; remark: other sources report otherwise) of 0.081.

B12: HPV18 E1 447 peptide … (peptide)
peptide: RPIVQFLRY
modifications: not checked
With B12 the binding affinity ratio (IC50 of standard peptide / IC50 of test peptide) [19] was 0.0033, the binding affinity ratio (IC50 of standard peptide / IC50 of test peptide) [20] was 0.04 and the binding affinity ratio (IC50 of standard peptide / IC50 of test peptide) [21] was 0.023.

B13: HPV16 E1 peptide … (position 567, 9 amino acids) (peptide)
peptide: NINAGTDSR
modifications: not checked
With B13 the relative binding ratio (IC50 of standard peptide / IC50 of test peptide) [15] was 0.0005, the relative binding ratio (IC50 of standard peptide / IC50 of test peptide) [16] was 0.0002 and the binding affinity ratio (IC50 of the standard peptide / IC50 of the test peptide) [17] was 0.0005.

B14: HPV45 E1 267 peptide … (SEQ ID NO: 43681) (peptide)
peptide: LILALLRYK
modifications: not checked
B14 showed a relative binding ratio (IC50 of standard peptide / IC50 of test peptide) [22] of 0.18.

B15: HPV16 E1 308 … (peptide)
peptide: EPPKLRSTAA
modifications: not checked
With B15 the binding affinity ratio (IC50 of standard peptide / IC50 of test peptide) [10] was 0.0002, the binding affinity ratio (IC50 of standard peptide / IC50 of test peptide) [11] was 0.0003 and the binding affinity ratio (IC50 of standard peptide / IC50 of test peptide) [12] was 0.0002. It also gave a binding affinity ratio (IC50 of standard peptide / IC50 of test peptide) [13] of 0.0002 and a binding affinity ratio (IC50 of standard peptide / IC50 of test peptide) [14] of 0.02.

B16: HPV18 E7 position 63, 10-mer … (peptide)
peptide: CMCCKCEARI
modifications: not checked
Work on B16 yielded a binding affinity ratio (IC50 of standard peptide / IC50 of test peptide) [9] of 0.0001.

B17: HPV18 E1 254 peptide … (peptide)
peptide: IAEGFKTLI
modifications: not checked
With B17 the binding affinity ratio (IC50 of standard peptide / IC50 of test peptide) [18] was 0.0003.
